# Assay results as given in the supplement of paper PMC12764529.
# ± gives the half width of the 95% confidence interval.
# What was measured:
# [1] = folding stability dG unfold from chymotrypsin proteolysis; higher = more stable
# Protocol: (§1)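 Folding stability of de novo designed mini-proteins (<80 aa, no Cys; designed by TrROS, TrMRF, ProteinMPNN and the joint model) was measured by cDNA display proteolysis with trypsin and chymotrypsin. Each protease was used at 11 concentrations in a threefold dilution series plus a no-protease condition. K50 was inferred by Bayesian fitting of sequencing counts, and dG unfold was derived against a sequence-predicted unfolded-state K50 (Tsuboyama et al. method). Sequences shown include variable-length N-terminal GS-type padding (SAGGSAGG...) inside a display construct carrying a PA tag. Rows were kept only if the AF2 dimer inter-PAE was >15, to exclude likely homo-oligomers.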
# [2] = folding stability dG unfold (combined trypsin and chymotrypsin); higher = more stable
# Protocol: as §1
Sequence,folding stability dG unfold [1] [kcal/mol],folding stability dG unfold [2] [kcal/mol]
SAPPATLTVDSVEFHPETGTLTIPFSHPAGPTASVLFRNEDGEVLEIPGTVPTATIRAEPNMRLERVFLGSA [r9_113_TrMRF],0.499 ± 0.1,-0.0386 ± 0.081
SAGGSAGGMKITITFPDGTKKEIEVESEEELLEAIKKLAEELGLEKEVTVTVEYNGKTYTITLKSAGGSAGG [r6_531_TrROS_Hall],5.13 ± 0.25,5.06 ± 0.32
SAGGSAGGSAGGPPPGDKIEIIVIKFEPRYDPDGEPKNPRIDSIEVITIPADDPDDLLEASAGGSAGGSAGG [r7_439_TrROS],0.805 ± 0.079,0.348 ± 0.34
SAGGSDPVSVSTEGGNTYVTVGDTPVLRLSKGKPEPPVLVTLPNGEVIEMPRSEALARDPSTIEFTPGSAGG [r13_802_JUSTAS],0.368 ± 0.042,-0.118 ± 0.12
SAGGSAGGSMLKVRIKIEIDGKTLEVEIEVPPGTTIEELAEALKKLFPGKEVKIVSVEVYELPSAGGSAGGS [r12_427_TrROS_Hall],4.23 ± 0.14,4.47 ± 0.25
SMDVVTEVTVKLPYRDASHHHHLNIKVTRTISSKDPSLSPEALPPEVLAEEAKKEAIEELKKKGIPEEFLSA [r9_516_JUSTAS],-0.346 ± 0.64,< -1
SAMKKLRELLEKEFPDRPIKSVKNLGEKLAPDGTPYYVVELTFPDGSTITVTITSEEKPEILEAIEEEESAG [r14_143_JUSTAS],3.9 ± 0.22,4.03 ± 0.27
SAGGSAGGSAGIKKQRNPDGQERETIEIRTKNQPIPITFPPDDNADDLANNFGLPADDIRSAGGSAGGSAGG [r11_1039_TrROS],0.682 ± 0.039,0.28 ± 0.079
SAGGSAGGITLVVEGMPAEQMEEMKQKIREFAEDYNVEVNIDQERNPDGRMRATVEIEPPPGDPSAGGSAGG [r6_907_TrROS],-0.472 ± 0.15,-0.767 ± 0.28
SAGGSNKNSPEDQKRKQQPPQPKVRTIPGPLSEDQIKNLLDNGQPIIIEGPDGEWWVIKNNEIEPISAGGSA [r2_33_TrROS],0.255 ± 0.14,-0.0552 ± 0.24
SAGGSMKVEYDESTGVTTITLPDGSTITFPAEDTGLTVEASLEDDTLTITVKDPNNPVPLETRTIPSSSAGG [r13_938_JUSTAS],0.935 ± 0.036,0.393 ± 0.18
SAGMMRVEVFGDGELLEVTELDGDTVEVPVPPERHRVRVFAPGDDRAAEAEVDPAKGVVVLKVPADARISAG [r5_469_TrMRF],-0.197 ± 0.24,-0.821 ± 0.38
SAGGSAGGPKWRRYTIPLDKIKEIDPGGTVTLDDIQDLGLPPDHEIRVVPRPDGEPWVSIEVPYSAGGSAGG [r6_553_TrROS],0.506 ± 0.14,0.201 ± 0.11
SMVYVPEKNVIIEESEKLFYDPNKPRDLRVKTTPVIEVSPSGEKKTLKTEITFYNPEGNPIFTEESEIEISA [r9_383_JUSTAS],-0.399 ± 0.22,< -1
SAGGSASPELQKRIKDALQEENPDYPVTVDEVDPKNNTIMITFNSPWHQKRIEKALKEDGIKITIYSAGGSA [r15_196_TrROS],-0.0514 ± 0.38,-0.618 ± 0.27
SAGGSAGGSAMRAVVVAFPPDGPPRVFPTDDLAPDERRVTFDPETGELALIEVLPEDGDPASAGGSAGGSAG [r3_356_TrMRF],0.0788 ± 0.23,< -1
SAGGSAGGSAGMEMKLRPEPVVEVTPTVTTEPDPSLGTTVTTTTYTFDNGEVKTETDTGGSAGGSAGGSAGG [r11_463_JUSTAS],0.0371 ± 0.25,-0.441 ± 0.28
SAGGSAGGWVEQTYMVPPDMPVNMIKNKLEPWGVEIDDVEPFPNGNSIVTITIPPEFLKDPDEKSAGGSAGG [r6_470_TrROS],0.574 ± 0.22,-0.262 ± 0.51
SAGGSAGGSAGGNVPIPFLPEGFDVEVKKIEVPTPGKVKLVLVPKNSDEEFELEFSPEELSAGGSAGGSAGG [r7_342_TrMRF],-0.633 ± 0.2,< -1
SAGGSAGGSAGGSDPSMSLETFVIPESTSTVTLTDPSGTLRTLTTGRDPLTLTEVLPPRSAGGSAGGSAGGS [r4_162_JUSTAS],0.459 ± 0.12,-0.078 ± 0.17
SAGGPKVVKGKKVEKVELEVGKLPDGVELVKVKVRSKEVDKEFTFTFEPGQDLGEFGKATGFDIGVESAGGS [r16_676_TrMRF],0.552 ± 0.16,0.14 ± 0.17
SAGGSMETTTLSSTPAELIATVEAEAAAAGKTISEITVTEDPATGLATVPVTIEITPAPALAPAARRSAGGS [r16_584_JUSTAS],0.722 ± 0.065,0.249 ± 0.21
SAGGGVTLTVDVRSKSGGSPEKFTLTLPVAVDPAGSADLDAARAAVAAALPPEAEVLELSLLPPDVPASAGG [r13_504_JUSTAS],0.346 ± 0.17,< -1
SAGGSAGGSAGPVIRIPDATVTTDPATGTLTVTTAGRTVTVPPGATVTVLPDGTVVVERPSAGGSAGGSAGG [r17_34_JUSTAS],0.759 ± 0.035,-0.0514 ± 0.067

Sequence,folding stability dG unfold [1] [kcal/mol],folding stability dG unfold [2] [kcal/mol]
SAGGGMGSSMKAKVEEEIPELKAADSTKVEITVTVTETRSFALPGGELATTTTTTTKTLEVEVPEEESAGGS [r8_203_JUSTAS],0.208 ± 0.26,-0.217 ± 0.34
SAGGSARVVTAVARHPNSTEATLTVTDSGAAGGTSEITFASPEDLLAAIRNLPASVASVSVRPLLPSAGGSA [r15_589_TrMRF],0.806 ± 0.028,0.422 ± 0.092
SAGGSAGGSAGMTSTVTEVRPGSDSWTVTVTYSENSSTKTQTLTVPAGPTVRSGLPSVVSSAGGSAGGSAGG [r11_921_JUSTAS],0.209 ± 0.15,-0.435 ± 0.23
SAGGEPGVSAEEAAERLRRELGLPGLERVLEVRLTRAVGDPAGRPPEAESLEVEVEVSPEVRERLAALSAGG [r13_552_JUSTAS],0.599 ± 0.051,0.00798 ± 0.068
SAGGSAGGSAGGSMKTEEVVYVKTPDAWVRLKKEEAEKLEKETGVKIERESFTLPAGALESAGGSAGGSAGG [r7_185_JUSTAS],0.89 ± 0.17,0.405 ± 0.24
SAGGKKEYKILITGKSIPSDGIVYLPNPNKVNIKSNNNYTYKTIPITIIADNNPEKAKKIAKELGLGSAGGS [r16_467_TrMRF],0.232 ± 0.34,< -1
SAGGSAGGSAGSEVEKARNAALEARRAGVEEVTITMPEELKEKVTALAKEEGINLKIESESAGGSAGGSAGG [r11_371_JUSTAS],0.0457 ± 0.19,-0.351 ± 0.36
SAGGSAGGSAGGNDPNGQEKEIPIDPGQRADEIAEEFKDEFNPDHVEIEASEEGYAEVRVSAGGSAGGSAGG [r7_273_TrROS],0.887 ± 0.044,0.348 ± 0.079
SAPEIVVERFEDGSRRLGFTIPGYEVLEEVDVPANETEKTAVFTLPDRVLVFTFREEGIEPRPVPLDELSAG [r14_403_TrMRF],-0.201 ± 0.3,-0.598 ± 0.25
SAGGSAGGSAGMKVFIFKDPEKAIEAIKEFAGKNGVKYKIIEIETTPDGYVKIKVEFEPISAGGSAGGSAGG [r11_304_TrMRF],5.31 ± 0.22,5.48 ± 0.25
SAAKPVVIEVGFDGKPVTVVVYPNPGRVRAYVPATNAVSEATVGEDGEVNLLLYNPADGKPLPANITVPSAG [r14_656_TrMRF],-0.973 ± 0.39,< -1
SAGMPVLVSAPIPLARGPDGVARIDPALVRALAEAAGFTGRVESVEVRPLPDSYLVAVRLPDSVLLGESAGG [r19_398_TrMRF],0.672 ± 0.077,-0.31 ± 0.11
SAGMITLEKTVPLSEATPEKAKEIAEELLEKLKKEGLPEGLEKTSIEITELPGDELIVKVPTKIVSKESAGG [r19_87_JUSTAS],-0.556 ± 0.14,< -1
SAGMITRTITTVDPVDPALVAAISPDLVFPDGSTVSRDGDRLVITTPVTLALPPSPDPAGQLVLPTAASAGG [r19_148_JUSTAS],0.483 ± 0.087,-0.00544 ± 0.17
SGMPPVSVSSIEPVSVSPDGTSRTFRAPLTTPSGEPVTYTGPVSEILKRVEEEGWGPTASAPGGLVEVRDSA [r9_1078_JUSTAS],-0.368 ± 0.12,-0.583 ± 0.1
SAGGSAGGSMTETVEKTMPSNGATAEITKLPDGSIKVTIKGSNPVIETFPADEPLVIKPGLEGSAGGSAGGS [r12_1003_JUSTAS],0.621 ± 0.095,0.263 ± 0.18
SAGGSAGGSADNPQVERTIHDPNGGFKVMINPNDNSIEIWPYKNDKPEPKTFDSPEALDDISAGGSAGGSAG [r3_426_TrROS],0.136 ± 0.17,-0.387 ± 0.29
SAGGAPIPTVSTRTTPLPGGSSRTTTTTTYTFPETGTVYTATTTTTASPGGSPTTTATTTTTALAAASAGGS [r16_113_JUSTAS],0.0663 ± 0.26,-0.507 ± 0.23
SAGGSAGGSAAGFTAPVVQVRTENGKIYIDVKNSSVSLTVPENAEITPLESEVVKITPLPAPSAGGSAGGSA [r18_468_JUSTAS],0.542 ± 0.1,0.00621 ± 0.22
SAGGSAGGSMIVVPLERELDPSEPGLTKEEVKAILEAKGLDVVDIKVSTDPAKGLTRAVAKVKSAGGSAGGS [r12_1052_JUSTAS],-0.851 ± 0.35,< -1
SAGGSAGGSAGGMPPRLVEIPIFVPPTDPARAEALAEELREELGAEEVVVRIVLAPPGLGSAGGSAGGSAGG [r7_632_JUSTAS],0.982 ± 0.013,0.414 ± 0.072
SAGGAPLAERTEPLPDGRTVRRVLEYDPEKRTVRVRTERWAPDGAAEPAEEVLDVPESATSPEFLLASAGGS [r8_461_JUSTAS],-0.606 ± 0.21,< -1
SAGGSAGGSAGGMTETVTLTEVGVTTKTAPLPEGPLTTTPTVTVDRVITLPPSSPAALALSAGGSAGGSAGG [r7_889_JUSTAS],-0.257 ± 0.42,< -1
